“And” between values parts separate entries of the source, which are not always exact repeats. Equal entries are not always repeated. Each block holds one substance with its values, some of them ahead of it.
Assays:
[1] = biological target: His-FakB2 (fatty acid binding protein FakB2, Staphylococcus aureus) (S. aureus); assay: BLI; Octet RED96e; His-FakB2 (2 ug/mL) immobilised on Ni-NTA biosensor tips, blocked with 0.1 mg/mL BSA; untagged FakA 1.65-133.3 nM in solution, 5 min association, 10 min dissociation; 50 mM Tris HCl pH 7.4, 150 mM KCl, 1 mM TCEP, 5% glycerol, 10 mM MgCl2; 1:1 binding model (1 FakB2:1 FakA binding site)
[2] = biological target: FakA H282A, H284A variant (Staphylococcus aureus) (S. aureus); assay: mass photometry; kinetic mass photometry, 20 min after dilution to 10 nM (equilibrium); room temperature; 50 mM Tris pH 7.4, 150 mM KCl, 1 mM TCEP, 10 uM ZnSO4; dimer to monomers
[3] = biological target: FakA H282A, H284A variant (Staphylococcus aureus) (S. aureus); assay: mass photometry; kinetic mass photometry, initial reading (0 min) after dilution to 10 nM; room temperature; 50 mM Tris pH 7.4, 150 mM KCl, 1 mM TCEP, 10 uM ZnSO4; dimer to monomers
[4] = biological target: His-tagged FakB2 (Staphylococcus aureus) (S. aureus); assay: BLI; His-FakB2 (2 ug/mL) immobilised on Ni-NTA biosensor tips, blocked with 0.1 mg/mL BSA; varying concentrations of untagged FakA, 5 min association, 10 min dissociation; 50 mM Tris HCl pH 7.4, 150 mM KCl, 1 mM TCEP, 5% glycerol, 10 mM MgCl2; Octet RED96e; fitted 1:1 and with a bivalent analyte model
[5] = biological target: Fatty acid kinase FakA, wild type (Staphylococcus aureus) (S. aureus); assay: mass photometry; kinetic mass photometry, 20 min after dilution to 10 nM (equilibrium); room temperature; 50 mM Tris pH 7.4, 150 mM KCl, 1 mM TCEP, 10 uM ZnSO4; dimer to monomers
[6] = biological target: His-tagged FakB2 (Staphylococcus aureus) (S. aureus); assay: BLI; additional studies as a1 but FakB loaded at a range of 2 to 20 ug/mL
[7] = biological target: Fatty acid kinase FakA, wild type (Staphylococcus aureus) (S. aureus); assay: mass photometry; kinetic mass photometry, initial reading (0 min) after dilution to 10 nM; room temperature; 50 mM Tris pH 7.4, 150 mM KCl, 1 mM TCEP, 10 uM ZnSO4; dimer to monomers
[8] = biological target: Fatty acid kinase FakA, wild type (Staphylococcus aureus) (S. aureus); assay: SEC-SAXS; size-exclusion chromatography coupled with small-angle X-ray scattering of FakA in solution; AlphaFold dimer model refined with BilboMD, envelopes by DAMMIF and DENSS

koff [1]: 0.000686 s⁻¹
kon [1]: 158000 M⁻¹ s⁻¹
Substance: FakA (fatty acid kinase, Staphylococcus aureus), untagged (enzyme)

Substance: FakA H282A, H284A variant (Staphylococcus aureus) (enzyme)
percent of protein in the dimer peak [2]: 24%
percent of protein in the dimer peak [3]: 63%

Kd [4]: 4.34 nM
percent of protein in the dimer peak [5]: 57%
Kd [6]: 4.34 to 15 nM and 10.6 nM
percent of protein in the dimer peak [7]: 77%
stoichiometry N [8]: 2
Substance: Fatty acid kinase FakA, wild type (Staphylococcus aureus) (enzyme)
